Data from patent US20200339967, “CAS12C COMPOSITIONS AND METHODS OF USE” (The Regents of the University of California, published 2020).

T1: Cas12c_1 (C2c3_1)
T1 chain: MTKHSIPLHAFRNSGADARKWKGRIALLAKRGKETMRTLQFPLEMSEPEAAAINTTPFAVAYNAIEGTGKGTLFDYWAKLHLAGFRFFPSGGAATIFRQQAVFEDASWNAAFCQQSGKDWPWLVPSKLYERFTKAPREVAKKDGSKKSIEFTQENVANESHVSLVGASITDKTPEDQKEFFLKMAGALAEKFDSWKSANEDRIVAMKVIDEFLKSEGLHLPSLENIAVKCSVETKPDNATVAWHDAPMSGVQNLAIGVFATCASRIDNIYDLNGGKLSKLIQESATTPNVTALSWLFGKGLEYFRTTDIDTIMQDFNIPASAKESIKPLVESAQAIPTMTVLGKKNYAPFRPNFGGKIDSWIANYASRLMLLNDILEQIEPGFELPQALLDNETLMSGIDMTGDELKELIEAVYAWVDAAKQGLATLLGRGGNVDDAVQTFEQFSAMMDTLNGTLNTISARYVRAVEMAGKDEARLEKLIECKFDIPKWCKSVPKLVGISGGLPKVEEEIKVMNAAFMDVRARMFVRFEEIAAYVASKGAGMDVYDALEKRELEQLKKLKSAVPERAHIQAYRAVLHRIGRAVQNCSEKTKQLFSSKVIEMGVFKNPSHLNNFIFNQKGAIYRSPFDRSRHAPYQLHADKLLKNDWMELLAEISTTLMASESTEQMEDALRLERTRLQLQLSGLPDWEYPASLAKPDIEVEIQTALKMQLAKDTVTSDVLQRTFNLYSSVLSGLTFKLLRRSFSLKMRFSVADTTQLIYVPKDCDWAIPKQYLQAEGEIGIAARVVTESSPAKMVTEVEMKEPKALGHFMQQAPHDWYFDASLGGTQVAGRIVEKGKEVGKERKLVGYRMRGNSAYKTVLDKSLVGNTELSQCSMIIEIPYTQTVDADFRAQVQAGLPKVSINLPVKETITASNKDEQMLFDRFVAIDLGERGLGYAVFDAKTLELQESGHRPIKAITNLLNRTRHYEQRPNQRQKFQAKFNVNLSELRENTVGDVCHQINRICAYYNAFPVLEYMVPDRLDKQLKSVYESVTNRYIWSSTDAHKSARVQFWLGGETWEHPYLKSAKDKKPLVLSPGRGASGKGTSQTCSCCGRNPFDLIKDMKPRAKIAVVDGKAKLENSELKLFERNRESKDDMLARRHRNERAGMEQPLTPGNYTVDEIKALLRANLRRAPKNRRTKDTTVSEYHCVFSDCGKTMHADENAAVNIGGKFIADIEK

B1: Cas12c_1 trancRNA (long) (ssRNA)
RNA: AUACCACCCGUGCAUUUCUGGAUCAAUGAUCCGUACCUCAAUGUCCGGGCGCGCAGCUAGAGCGACCUGAAAUCUGCACGAAAACCGGCGAAAGCCGGUUUUUUGU
B2: Cas12c_1 trancRNA (short) (ssRNA)
RNA: AUACCACCCGUGCAUUUCUGGAUCAAUGAUCCGUACCUCAAUGUCCGGGCGCGCAGCUAGAGCGACCUGAAAUCU

How the values were obtained:
Cas12c_1 (C2c3_1) [1] = molecular target: T1, Cas12c_1 (C2c3_1); assay: pulldown; trancRNA co-purified with Cas12c and guide RNA; RNA sequencing and urea-PAGE; long vs short form not distinguished in text
From the text: FIG. 3. The Cas12c CRISPR/Cas locus (for the Cas12c_1 protein) was transferred to and expressed in E. coli. Results from the RNA mapping of the Cas12c locus are presented (Top). In addition, the Cas12c protein was tagged and purified, and the RNA that was associated with the protein was sequenced, and results from the RNA mapping are presented (bottom). Both mapping results indicated the existence of a highly transcribed non-coding transcript adjacent to the Cas1-encoding sequence but on the opposite side of the Cas1-encoding sequence as the CRISPR array (Small repeating aligned arrows represent the repeats of the CRISPR array). The highly transcribed noncoding RNA is not complementary to the directed repeat as are transactivating CRISPR RNAs (tracrRNA). The transactivating noncoding RNA is referred herein as “trancRNA”.
FIG. 4. RNAs that pulled down (co-purified) with the Cas12c protein were run on urea-PAGE gels, confirming the presence of guide RNA and trancRNA.

Cas12c_1 (C2c3_1) [2] = molecular target: T1, Cas12c_1 (C2c3_1); assay: pulldown; trancRNA co-purified with Cas12c and guide RNA; long vs short form not distinguished in text

Binder | binding result (Cas12c_1 (C2c3_1) [1]) | binding result (Cas12c_1 (C2c3_1) [2])
B1 | binds | –
B2 | – | binds
